From patent US20230381333A1 (HANMI PHARM, published 2023)
Bridge positions count the residues as written; N and C are the ends. Square brackets hold non-standard residues; d marks the D form. Ends that are not written are not given here. * marks the point of attachment. Acetyl(2-(4-imidazolyl)) = O=C(Cc1c[nH]cn1)*; Aib = CC(C)(N)C(=O)O

Legend:
Assay in all cases: cell-based or functional assay
human GLP-1 receptor = human GLP-1 receptor (human, UniProt P43220 24-463)
human GCG receptor = human GCG receptor (human, UniProt P47871 26-477)
Chain of human GCG receptor (P47871 26-477): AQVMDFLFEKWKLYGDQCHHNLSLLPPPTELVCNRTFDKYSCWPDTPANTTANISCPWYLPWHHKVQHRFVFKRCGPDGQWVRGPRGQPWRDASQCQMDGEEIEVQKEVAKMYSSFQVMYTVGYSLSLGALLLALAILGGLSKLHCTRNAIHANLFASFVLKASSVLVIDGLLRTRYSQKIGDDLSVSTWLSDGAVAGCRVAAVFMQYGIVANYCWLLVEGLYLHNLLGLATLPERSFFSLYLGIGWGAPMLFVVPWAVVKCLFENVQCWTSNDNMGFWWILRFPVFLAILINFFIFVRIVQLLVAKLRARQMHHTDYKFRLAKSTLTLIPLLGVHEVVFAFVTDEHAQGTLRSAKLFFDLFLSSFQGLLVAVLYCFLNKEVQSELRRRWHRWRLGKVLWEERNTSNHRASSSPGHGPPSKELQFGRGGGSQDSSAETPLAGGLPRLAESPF

human GIP receptor = target: T1, human GIP receptor (human, UniProt P48546 22-466)
T1 sequence (looked up): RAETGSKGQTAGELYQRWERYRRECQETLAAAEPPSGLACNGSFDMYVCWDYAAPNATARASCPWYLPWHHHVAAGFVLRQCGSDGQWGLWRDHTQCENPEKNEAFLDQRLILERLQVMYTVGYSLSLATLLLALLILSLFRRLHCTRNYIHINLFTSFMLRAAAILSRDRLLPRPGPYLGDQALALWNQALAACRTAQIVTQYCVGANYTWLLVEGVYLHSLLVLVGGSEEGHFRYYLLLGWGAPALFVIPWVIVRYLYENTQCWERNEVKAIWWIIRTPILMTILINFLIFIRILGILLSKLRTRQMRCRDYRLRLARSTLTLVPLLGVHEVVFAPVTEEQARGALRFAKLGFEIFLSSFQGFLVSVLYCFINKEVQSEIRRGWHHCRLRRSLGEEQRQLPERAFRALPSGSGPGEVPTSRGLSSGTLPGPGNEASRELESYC

Row | Binder | In vitro activity compared to native-type peptide (%), vs GLP-1 (human GLP-1 receptor) [%] | In vitro activity compared to native-type peptide (%), vs Glucagon (human GCG receptor) [%] | In vitro activity compared to native-type peptide (%), vs GIP (human GIP receptor) [%]
1 | {Acetyl(2-(4-imidazolyl))}-[Aib]QGTFTSDYSIAMDEIHQKDFVNWLLNTC (bridge 15-19) [triple agonist of SEQ ID NO: 87] | 0.9 | < 0.1 | < 0.1
2 | H[Aib]QGTFTSDVSKYLDGQAAQEFVAWLLAGGGPSSGAPPPSC [triple agonist of SEQ ID NO: 10] | 46 | < 0.1 | < 0.1
3 | [Acetyl(2-(4-imidazolyl))]GQGTFTSDLSIQYDSEHQRDFIEWLKDTGPSSGAPPPSHG [triple agonist of SEQ ID NO: 19] | < 0.1 | < 0.1 | < 0.1
4 | Y[Aib]QGTFTSDYSKYLDEKRAKEFVQWLLCHHPSSGQPPPS (bridge 16-20) [triple agonist of SEQ ID NO: 95] | 2.1 | 0.4 | < 0.1
5 | [Acetyl(2-(4-imidazolyl))]GQGTFTSDLSKQMDSEAQQLFIEWLKNGGPSSGAPPPSHG [triple agonist of SEQ ID NO: 16] | 2.1 | < 0.1 | < 0.1
6 | [Acetyl(2-(4-imidazolyl))]GEGTFISDYSIQLDEIAVQDFVEWLLAQKPSSGAPPPSHG [triple agonist of SEQ ID NO: 13] | < 0.1 | < 0.1 | < 0.1
7 | {Acetyl(2-(4-imidazolyl))}-[Aib]QGTFTSDYSKYLDEKRQKEFVNWLLAQC (bridge 15-19) [triple agonist of SEQ ID NO: 86] | 28.4 | 0.4 | 0.2
8 | Y[Aib]QGTFTSDYSKALDEKAAKDFVNWLLDHHPSSGQPPPSC (bridge 16-20) [triple agonist of SEQ ID NO: 99] | 20.9 | 14.9 | 57.7
9 | [Acetyl(2-(4-imidazolyl))]GQGTFTSDLSKQMDSERAREFIEWLKNTGPSSGAPPPSHG [triple agonist of SEQ ID NO: 18] | < 0.1 | < 0.1 | < 0.1
10 | {Acetyl(2-(4-imidazolyl))}-[Aib]QGTFTSDYSKYLDEKRQKEFVNWLLAQKC (bridge 15-19) [triple agonist of SEQ ID NO: 93] | 5.7 | 0.3 | 0.7
11 | Y[Aib]QGTFTSDYSKYLDEKRAKEFVQWLLDCHPSSGQPPPS (bridge 16-20) [triple agonist of SEQ ID NO: 97] | 10.5 | 62.8 | 2.6
12 | {Acetyl(2-(4-imidazolyl))}-[Aib]QGTFTSDYSIAMDEIHQKDFVNWLLAQKC (bridge 15-19) [triple agonist of SEQ ID NO: 92] | 0.8 | < 0.1 | 0.4
13 | [Acetyl(2-(4-imidazolyl))]GQGTFTSDLSKQMDEERAREFIEWLLAQKPSSGAPPPSHG [triple agonist of SEQ ID NO: 17] | 0.2 | < 0.1 | < 0.1
14 | [Acetyl(2-(4-imidazolyl))]GEGTFTSDLSKYLDSRRQQLFVQWLKAGGPSSGAPPPSHG [triple agonist of SEQ ID NO: 11] | 1.4 | < 0.1 | < 0.1
15 | {Acetyl(2-(4-imidazolyl))}-[Aib]QGTFTSDYSKYLDEKRQKEFVQWLLDTKC (bridge 15-19) [triple agonist of SEQ ID NO: 89] | 7.1 | 0.7 | < 0.1
16 | Y[Aib]QGTFTSDYSKALDEKAAKEFVNWLLDQHPSSGQPPPSC (bridge 16-20) [triple agonist of SEQ ID NO: 101] | 23.2 | 13.9 | 40.1
17 | Y[Aib]QGTFTSDYSKALDEKAAKEFVQWLLDQHPSSGQPPPSC (bridge 16-20) [triple agonist of SEQ ID NO: 100] | 42.2 | 12.7 | 118
18 | H[Aib]QGTFTSDVSSYLDGQAQKEFIAWLVKGC [triple agonist of SEQ ID NO: 2] | 5.9 | < 0.1 | < 0.1
19 | Y[Aib]QGTFTSDYSKALDEKAAKDFVNWLLDQHPSSGQPPPSC (bridge 16-20) [triple agonist of SEQ ID NO: 102] | 23.3 | 29.5 | 58
20 | [Acetyl(2-(4-imidazolyl))]GEGTFISDLSKYMDEQAVQLFVEWLMAGGPSSGAPPPSHG [triple agonist of SEQ ID NO: 12] | 0.4 | < 0.1 | < 0.1
21 | Y[Aib]QGTFTSDYSKALDEKAAKEFVNWLLDHHPSSGQPPPSC (bridge 16-20) [triple agonist of SEQ ID NO: 98] | 28.1 | 8.2 | 47.1
22 | Y[Aib]QGTFTSDYSKYLDEKRAKEFVQWLLDHCPSSGQPPPS (bridge 16-20) [triple agonist of SEQ ID NO: 96] | 34.4 | 195 | 5.2
23 | {Acetyl(2-(4-imidazolyl))}-[Aib]QGTFTSDYSIAMDEIHQKDFVNWLLNTKC (bridge 15-19) [triple agonist of SEQ ID NO: 94] | 0.5 | < 0.1 | < 0.1
24 | {Acetyl(2-(4-imidazolyl))}-[Aib]QGTFTSDYSIAMDEIHQKDFVNWLLAQC (bridge 15-19) [triple agonist of SEQ ID NO: 85] | 4.3 | < 0.1 | 0.3
25 | [Acetyl(2-(4-imidazolyl))]GQGTFTSDYSIQLDEIAVRDFVEWLKNGGPSSGAPPPSHG [triple agonist of SEQ ID NO: 14] | 28 | < 0.1 | < 0.1
26 | {Acetyl(2-(4-imidazolyl))}-[Aib]EGTFTSDYSIAMDEIHQKDFVNWLLAQKC (bridge 15-19) [triple agonist of SEQ ID NO: 90] | 7.4 | < 0.1 | < 0.1
27 | {Acetyl(2-(4-imidazolyl))}-[Aib]QGTFTSDYSKYLDEKRQKEFVQWLLNTKC (bridge 15-19) [triple agonist of SEQ ID NO: 88] | 9.6 | 0.3 | < 0.1
28 | {Acetyl(2-(4-imidazolyl))}-[Aib]EGTFTSDYSIAMDEIHQKDFVDWLLAEKC (bridge 15-19) [triple agonist of SEQ ID NO: 91] | 31.9 | 16.8 | 0.3
